Laboratory results published in patent US20200262877A1, “ION CHANNEL-BINDING PEPTIDES AND METHODS OF USE THEREOF” (priority 2017, published 2020).

Columns and labels:
TRPA1 = target: T1, TRPA1 (Homo sapiens, UniProt O75762); experiment: Ion channel panel (IonWorks Barracuda): TRPA1; format: cell-based; conditions: 100% = no change, <100% = inhibition
T1 construct: host or cells: HEK293 or CHO
Outline: (§1)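 Transfected HEK293 or CHO cells were exposed for at least 5 min to peptides at 200 nM and 20 μM final, tested in duplicate, in HEPES-buffered physiological saline. Activation was taken as peptide-plus-agonist current over control current ×100, and inhibition as 1 minus that ratio ×100. Each channel's control was its own reference compound.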

Kir2.1 = target: T2, Kir2.1 (Homo sapiens, UniProt P63252); experiment: Ion channel panel (IonWorks Barracuda): Kir2.1; format: cell-based; conditions: 100% = no change, <100% = inhibition
T2 construct: host or cells: HEK293 or CHO
Outline: as §1

GABA = experiment: Ion channel panel (IonWorks Barracuda): GABA; format: cell-based; conditions: 100% = no change, <100% = inhibition
Outline: as §1

Nav1.7 = target: T3, Nav1.7 (Homo sapiens, UniProt Q15858); experiment: cell-based; format: cell-based; conditions: 100% = no change; for Activity of Nav1.7 with peptide, expressed as a percentage of the reference compound: peptide at 0.2 μM; for Activity of Nav1.7 with peptide (percentage of the reference compound): peptide at 20 μM
T3 construct: host or cells: HEK293 or CHO

Cav2.1 = target: T4, Cav2.1 (Homo sapiens, UniProt O00555); experiment: cell-based; conditions: 100% = no change, <100% = inhibition
T4 construct: host or cells: HEK293 or CHO
Outline: as §1

Kv2.1 = target: T5, Kv2.1 (Homo sapiens, UniProt Q14721); experiment: cell-based; conditions: 100% = no change, <100% = inhibition
T5 construct: host or cells: HEK293 or CHO
Outline: as §1

Cav2.2 = target: T6, Cav2.2 (Homo sapiens, UniProt Q00975); experiment: cell-based; conditions: 100% = no change, <100% = inhibition
T6 construct: host or cells: HEK293 or CHO
Outline: as §1

Nav1.5 = Nav1.5 (Homo sapiens, UniProt Q14524); experiment: in vitro; conditions: 100% = no change; for Activity of Nav1.5 with peptide, expressed as a percentage of the reference compound: peptide at 0.2 μM; for Activity of Nav1.5 with peptide (percentage of the reference compound): peptide at 20 μM
Outline: as §1

hERG = hERG (Homo sapiens, UniProt Q12809); experiment: in vitro; conditions: 100% = no change, <100% = inhibition
Outline: as §1

α3β4 = target: T7, α3β4 (Homo sapiens, UniProt P30926+P32297); experiment: Ion channel panel (IonWorks Barracuda): α3β4; format: cell-based; conditions: 100% = no change, <100% = inhibition
T7 construct: host or cells: HEK293 or CHO
Outline: as §1

NR2B = target: T8, NR2B (Homo sapiens, UniProt Q13224); experiment: Ion channel panel (IonWorks Barracuda): NR2B; format: cell-based; conditions: 100% = no change, <100% = inhibition
T8 construct: host or cells: HEK293 or CHO
Outline: as §1

TRPV1 = target: T9, TRPV1 (Homo sapiens, UniProt Q8NER1); experiment: Ion channel panel (IonWorks Barracuda): TRPV1; format: cell-based; conditions: 100% = no change, <100% = inhibition
T9 construct: host or cells: HEK293 or CHO
Outline: as §1

Kv1.2 = target: T10, Kv1.2 (Homo sapiens, UniProt P16389); experiment: cell-based; format: cell-based; conditions: 100% = no change, <100% = inhibition
T10 construct: host or cells: HEK293 or CHO
Outline: as §1

Kv1.3 = target: T11, Kv1.3 (Homo sapiens, UniProt P22001); experiment: cell-based; format: cell-based; conditions: 100% = no change, <100% = inhibition
T11 construct: host or cells: HEK293 or CHO
Outline: as §1

Kv1.1 = target: T12, Kv1.1 (Homo sapiens, UniProt Q09470); experiment: cell-based; format: cell-based; conditions: 100% = no change, <100% = inhibition
T12 construct: host or cells: HEK293 or CHO
Outline: as §1

5HT3a = target: T13, 5HT3a (Homo sapiens, UniProt P46098); experiment: Ion channel panel (IonWorks Barracuda): 5HT3a; format: cell-based
T13 construct: host or cells: HEK293 or CHO
T13 sequence (P46098 whole entry, looked up): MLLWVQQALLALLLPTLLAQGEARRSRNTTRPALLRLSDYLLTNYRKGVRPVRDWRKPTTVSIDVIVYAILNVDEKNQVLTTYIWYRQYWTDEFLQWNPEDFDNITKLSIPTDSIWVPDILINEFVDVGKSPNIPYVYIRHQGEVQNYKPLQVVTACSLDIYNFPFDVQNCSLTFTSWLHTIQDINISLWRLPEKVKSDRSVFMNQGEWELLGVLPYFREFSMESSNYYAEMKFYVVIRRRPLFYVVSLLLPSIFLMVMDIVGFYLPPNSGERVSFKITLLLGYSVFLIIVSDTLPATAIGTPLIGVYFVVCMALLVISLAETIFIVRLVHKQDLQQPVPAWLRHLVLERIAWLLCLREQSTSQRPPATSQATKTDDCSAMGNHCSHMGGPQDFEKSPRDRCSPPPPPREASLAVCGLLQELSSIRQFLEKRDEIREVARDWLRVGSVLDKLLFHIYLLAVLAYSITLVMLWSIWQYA
Outline: as §1

α4β2 = target: T14, α4β2 (Homo sapiens, UniProt P17787+P43681); experiment: Ion channel panel (IonWorks Barracuda): α4β2; format: cell-based; conditions: 100% = no change, <100% = inhibition
T14 construct: host or cells: HEK293 or CHO
Outline: as §1

NR2A = target: T15, NR2A (Homo sapiens, UniProt Q12879); experiment: Ion channel panel (IonWorks Barracuda): NR2A; format: cell-based; conditions: 100% = no change, <100% = inhibition
T15 construct: host or cells: HEK293 or CHO
Outline: as §1

[1] = first of two Nav1.7 columns (probably TP1)
[2] = second of two Nav1.7 columns (probably TP2)
[3] = first of two Nav1.5 columns (probably TP1)
[4] = second of two Nav1.5 columns (probably TP2)

Sequence of Nav1.5 (Q14524 whole entry): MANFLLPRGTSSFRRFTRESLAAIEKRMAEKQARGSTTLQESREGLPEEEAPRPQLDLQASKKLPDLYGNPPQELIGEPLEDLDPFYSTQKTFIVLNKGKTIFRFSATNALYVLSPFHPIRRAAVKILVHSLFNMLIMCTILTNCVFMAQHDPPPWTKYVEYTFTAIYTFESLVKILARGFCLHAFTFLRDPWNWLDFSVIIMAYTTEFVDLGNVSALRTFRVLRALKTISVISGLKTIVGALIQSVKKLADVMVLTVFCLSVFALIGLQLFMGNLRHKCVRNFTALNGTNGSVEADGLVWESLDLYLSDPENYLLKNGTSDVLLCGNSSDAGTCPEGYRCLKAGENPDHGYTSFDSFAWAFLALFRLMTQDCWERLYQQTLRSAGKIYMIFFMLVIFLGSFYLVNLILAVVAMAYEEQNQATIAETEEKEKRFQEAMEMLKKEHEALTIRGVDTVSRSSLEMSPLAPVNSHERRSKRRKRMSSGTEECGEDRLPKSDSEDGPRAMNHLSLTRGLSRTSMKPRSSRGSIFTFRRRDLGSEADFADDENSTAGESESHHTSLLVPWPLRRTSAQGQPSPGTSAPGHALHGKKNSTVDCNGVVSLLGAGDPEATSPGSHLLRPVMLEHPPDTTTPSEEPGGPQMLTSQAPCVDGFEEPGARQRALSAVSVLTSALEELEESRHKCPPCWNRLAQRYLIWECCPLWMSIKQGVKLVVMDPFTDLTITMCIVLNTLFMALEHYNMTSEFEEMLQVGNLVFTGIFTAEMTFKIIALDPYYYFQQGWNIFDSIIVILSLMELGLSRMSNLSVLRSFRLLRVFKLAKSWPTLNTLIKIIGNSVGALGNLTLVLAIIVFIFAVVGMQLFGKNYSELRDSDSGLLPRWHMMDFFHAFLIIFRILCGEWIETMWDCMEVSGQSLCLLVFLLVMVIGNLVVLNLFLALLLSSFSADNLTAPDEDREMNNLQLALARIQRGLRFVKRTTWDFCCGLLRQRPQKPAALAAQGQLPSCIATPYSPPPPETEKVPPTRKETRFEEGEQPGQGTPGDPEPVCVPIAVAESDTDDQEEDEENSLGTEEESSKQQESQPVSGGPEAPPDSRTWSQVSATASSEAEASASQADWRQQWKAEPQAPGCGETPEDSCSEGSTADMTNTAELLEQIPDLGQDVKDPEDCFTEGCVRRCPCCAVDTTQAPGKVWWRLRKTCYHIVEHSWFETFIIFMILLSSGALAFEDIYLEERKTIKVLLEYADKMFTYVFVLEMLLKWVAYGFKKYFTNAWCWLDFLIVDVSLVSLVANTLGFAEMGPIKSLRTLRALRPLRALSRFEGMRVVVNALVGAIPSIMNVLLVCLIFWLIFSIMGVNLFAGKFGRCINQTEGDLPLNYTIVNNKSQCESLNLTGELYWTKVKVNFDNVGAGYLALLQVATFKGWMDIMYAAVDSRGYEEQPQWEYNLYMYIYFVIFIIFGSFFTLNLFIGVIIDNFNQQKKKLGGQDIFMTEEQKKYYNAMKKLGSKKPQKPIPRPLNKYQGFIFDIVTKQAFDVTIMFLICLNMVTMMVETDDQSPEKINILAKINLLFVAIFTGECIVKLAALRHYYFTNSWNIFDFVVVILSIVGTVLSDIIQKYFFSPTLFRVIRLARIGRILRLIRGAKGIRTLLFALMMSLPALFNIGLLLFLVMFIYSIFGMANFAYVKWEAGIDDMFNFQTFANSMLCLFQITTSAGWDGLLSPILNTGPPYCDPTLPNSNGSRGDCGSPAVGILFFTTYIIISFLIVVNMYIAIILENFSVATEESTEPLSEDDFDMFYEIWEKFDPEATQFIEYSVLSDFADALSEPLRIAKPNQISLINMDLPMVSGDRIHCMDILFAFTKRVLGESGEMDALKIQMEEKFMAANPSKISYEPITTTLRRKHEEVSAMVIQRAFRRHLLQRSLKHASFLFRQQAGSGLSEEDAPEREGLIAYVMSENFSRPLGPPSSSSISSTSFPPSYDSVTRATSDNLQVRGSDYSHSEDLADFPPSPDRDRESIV
T3 sequence (Q15858 whole entry): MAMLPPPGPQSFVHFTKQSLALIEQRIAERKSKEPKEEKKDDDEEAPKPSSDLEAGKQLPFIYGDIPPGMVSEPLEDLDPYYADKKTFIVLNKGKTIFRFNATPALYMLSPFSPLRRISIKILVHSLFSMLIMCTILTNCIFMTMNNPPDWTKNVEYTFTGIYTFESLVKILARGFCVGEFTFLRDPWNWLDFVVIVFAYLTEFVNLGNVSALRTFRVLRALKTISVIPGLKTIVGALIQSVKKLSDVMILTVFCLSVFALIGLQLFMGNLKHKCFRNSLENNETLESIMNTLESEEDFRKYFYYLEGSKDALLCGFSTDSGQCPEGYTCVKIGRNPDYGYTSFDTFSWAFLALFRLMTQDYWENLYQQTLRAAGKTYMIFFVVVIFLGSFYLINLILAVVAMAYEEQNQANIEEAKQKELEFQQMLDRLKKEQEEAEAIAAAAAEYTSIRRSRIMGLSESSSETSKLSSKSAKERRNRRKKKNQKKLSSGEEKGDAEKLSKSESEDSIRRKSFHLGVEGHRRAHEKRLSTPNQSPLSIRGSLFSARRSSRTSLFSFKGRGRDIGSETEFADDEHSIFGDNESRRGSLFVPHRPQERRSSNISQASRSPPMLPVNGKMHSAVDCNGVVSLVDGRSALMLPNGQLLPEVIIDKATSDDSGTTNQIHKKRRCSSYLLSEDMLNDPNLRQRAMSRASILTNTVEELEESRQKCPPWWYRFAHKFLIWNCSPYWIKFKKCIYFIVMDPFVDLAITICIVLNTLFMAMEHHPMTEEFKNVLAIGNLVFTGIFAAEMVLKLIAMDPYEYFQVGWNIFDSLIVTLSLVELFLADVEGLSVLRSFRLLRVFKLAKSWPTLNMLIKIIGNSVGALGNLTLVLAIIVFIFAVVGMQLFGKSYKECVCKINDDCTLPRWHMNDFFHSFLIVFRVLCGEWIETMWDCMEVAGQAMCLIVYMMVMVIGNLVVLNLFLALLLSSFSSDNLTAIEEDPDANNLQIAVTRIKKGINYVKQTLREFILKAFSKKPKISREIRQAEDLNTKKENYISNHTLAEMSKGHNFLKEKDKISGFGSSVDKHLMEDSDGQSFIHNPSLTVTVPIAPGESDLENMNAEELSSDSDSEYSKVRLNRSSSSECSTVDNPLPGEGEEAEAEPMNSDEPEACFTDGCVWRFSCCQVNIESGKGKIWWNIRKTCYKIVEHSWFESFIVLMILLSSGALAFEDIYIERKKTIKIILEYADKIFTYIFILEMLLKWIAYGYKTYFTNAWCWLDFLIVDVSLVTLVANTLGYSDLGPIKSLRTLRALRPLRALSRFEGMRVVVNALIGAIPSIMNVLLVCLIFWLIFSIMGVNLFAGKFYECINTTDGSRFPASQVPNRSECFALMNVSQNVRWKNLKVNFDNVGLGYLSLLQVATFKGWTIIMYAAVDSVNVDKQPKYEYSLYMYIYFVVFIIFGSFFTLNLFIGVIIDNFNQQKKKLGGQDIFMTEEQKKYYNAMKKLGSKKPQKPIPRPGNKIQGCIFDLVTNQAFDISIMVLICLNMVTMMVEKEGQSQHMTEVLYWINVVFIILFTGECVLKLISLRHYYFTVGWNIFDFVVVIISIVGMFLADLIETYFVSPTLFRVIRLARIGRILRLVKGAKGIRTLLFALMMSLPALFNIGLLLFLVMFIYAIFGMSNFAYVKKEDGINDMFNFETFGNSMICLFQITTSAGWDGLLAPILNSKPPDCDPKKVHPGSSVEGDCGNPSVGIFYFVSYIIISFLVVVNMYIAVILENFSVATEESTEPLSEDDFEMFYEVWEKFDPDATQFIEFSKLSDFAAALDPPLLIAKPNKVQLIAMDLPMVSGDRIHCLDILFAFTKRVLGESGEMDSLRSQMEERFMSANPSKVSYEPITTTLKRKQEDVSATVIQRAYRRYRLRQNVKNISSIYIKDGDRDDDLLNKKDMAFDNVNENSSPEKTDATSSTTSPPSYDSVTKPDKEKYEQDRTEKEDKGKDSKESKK
T7 sequence (P30926 22-498): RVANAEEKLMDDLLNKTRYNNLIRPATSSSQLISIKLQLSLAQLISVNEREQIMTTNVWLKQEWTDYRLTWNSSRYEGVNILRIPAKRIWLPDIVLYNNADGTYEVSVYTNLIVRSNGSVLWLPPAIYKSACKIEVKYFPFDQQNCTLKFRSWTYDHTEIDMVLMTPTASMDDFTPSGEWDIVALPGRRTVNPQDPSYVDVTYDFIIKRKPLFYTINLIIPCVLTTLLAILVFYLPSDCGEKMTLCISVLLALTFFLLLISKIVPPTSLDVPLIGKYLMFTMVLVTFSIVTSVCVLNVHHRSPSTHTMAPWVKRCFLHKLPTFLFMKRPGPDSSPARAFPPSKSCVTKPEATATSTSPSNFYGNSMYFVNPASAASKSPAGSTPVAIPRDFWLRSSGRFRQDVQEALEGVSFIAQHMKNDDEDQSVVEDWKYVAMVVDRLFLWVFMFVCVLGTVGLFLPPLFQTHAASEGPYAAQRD
T7 sequence (P32297 32-505): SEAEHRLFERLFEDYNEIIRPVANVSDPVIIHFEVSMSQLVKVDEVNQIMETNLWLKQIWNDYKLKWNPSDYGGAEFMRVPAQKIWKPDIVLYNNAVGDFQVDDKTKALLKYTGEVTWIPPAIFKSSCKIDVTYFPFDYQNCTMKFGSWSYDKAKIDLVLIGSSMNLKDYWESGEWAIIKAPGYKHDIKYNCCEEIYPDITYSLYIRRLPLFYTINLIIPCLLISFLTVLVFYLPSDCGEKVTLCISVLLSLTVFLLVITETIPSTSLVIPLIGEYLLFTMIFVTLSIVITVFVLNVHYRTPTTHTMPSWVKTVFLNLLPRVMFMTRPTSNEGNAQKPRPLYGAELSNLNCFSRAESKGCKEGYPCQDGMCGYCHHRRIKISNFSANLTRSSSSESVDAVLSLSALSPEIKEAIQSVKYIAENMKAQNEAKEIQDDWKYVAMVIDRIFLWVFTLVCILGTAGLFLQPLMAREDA

Substance: 22 (GSSDYCSNDFCFFSCRRDRCARGDCENGKCVCKNCHLN) [compound 22]
- Activity of TRPA1 with peptide, expressed as a percentage of the reference compound (TRPA1; peptide at 0.2 μM): 90%
- Activity of TRPA1 with peptide (percentage of the reference compound) (TRPA1; peptide at 20 μM): 128%
- Activity of Kir2.1 with peptide, expressed as a percentage of the reference compound (Kir2.1; peptide at 0.2 μM): 94%
- Activity of Kir2.1 with peptide (percentage of the reference compound) (Kir2.1; peptide at 20 μM): 97%
- Activity of GABA with peptide, expressed as a percentage of the reference compound (GABA; peptide at 0.2 μM): 99%
- Activity of GABA with peptide (percentage of the reference compound) (GABA; peptide at 20 μM): 124%
- Activity of Nav1.7 with peptide, expressed as a percentage of the reference compound (Nav1.7; [1]): 79%
- Activity of Nav1.7 with peptide, expressed as a percentage of the reference compound (Nav1.7; [2]): 81%
- Activity of Nav1.7 with peptide (percentage of the reference compound) (Nav1.7; [1]): 94%
- Activity of Nav1.7 with peptide (percentage of the reference compound) (Nav1.7; [2]): 87%
- Activity of Cav2.1 with peptide, expressed as a percentage of the reference compound (Cav2.1; peptide at 0.2 μM): 98%
- Activity of Cav2.1 with peptide (percentage of the reference compound) (Cav2.1; peptide at 20 μM): 99%
- Activity of Kv2.1 with peptide, expressed as a percentage of the reference compound (Kv2.1; peptide at 0.2 μM): 110%
- Activity of Kv2.1 with peptide (percentage of the reference compound) (Kv2.1; peptide at 20 μM): 93%
- Activity of Cav2.2 with peptide, expressed as a percentage of the reference compound (Cav2.2; peptide at 0.2 μM): 130%
- Activity of Cav2.2 with peptide (percentage of the reference compound) (Cav2.2; peptide at 20 μM): 86%
- Activity of Nav1.5 with peptide, expressed as a percentage of the reference compound (Nav1.5; [3]): 90%
- Activity of Nav1.5 with peptide, expressed as a percentage of the reference compound (Nav1.5; [4]): 90%
- Activity of Nav1.5 with peptide (percentage of the reference compound) (Nav1.5; [3]): 112%
- Activity of Nav1.5 with peptide (percentage of the reference compound) (Nav1.5; [4]): 116%
- Activity of hERG with peptide, expressed as a percentage of the reference compound (hERG; peptide at 0.2 μM): 84%
- Activity of hERG with peptide (percentage of the reference compound) (hERG; peptide at 20 μM): 79%
- Activity of a3b4 with peptide, expressed as a percentage of the reference compound (α3β4; peptide at 0.2 μM): 98%
- Activity of a3b4 with peptide (percentage of the reference compound) (α3β4; peptide at 20 μM): 92%
- Activity of NR2B with peptide, expressed as a percentage of the reference compound (NR2B; peptide at 0.2 μM): 94%
- Activity of NR2B with peptide (percentage of the reference compound) (NR2B; peptide at 20 μM): 97%
- Activity of TRPV1 with peptide, expressed as a percentage of the reference compound (TRPV1; peptide at 0.2 μM): 102%
- Activity of TRPV1 with peptide (percentage of the reference compound) (TRPV1; peptide at 20 μM): 67%
- Activity of Kv1.2 with peptide, expressed as a percentage of the reference compound (Kv1.2; peptide at 0.2 μM): 82%
- Activity of Kv1.2 with peptide (percentage of the reference compound) (Kv1.2; peptide at 20 μM): 34%
- Activity of Kv1.3 with peptide, expressed as a percentage of the reference compound (Kv1.3; peptide at 0.2 μM): 100%
- Activity of Kv1.3 with peptide (percentage of the reference compound) (Kv1.3; peptide at 20 μM): 51%
- Activity of Kv1.1 with peptide, expressed as a percentage of the reference compound (Kv1.1; peptide at 0.2 μM): 83%
- Activity of Kv1.1 with peptide (percentage of the reference compound) (Kv1.1; peptide at 20 μM): 97%
- Activity of 5HT3a with peptide (percentage of the reference compound) (5HT3a): 95%
- Activity of 5HT3a with peptide, expressed as a percentage of the reference compound (5HT3a): 77%
- Activity of a4b2 with peptide, expressed as a percentage of the reference compound (α4β2; peptide at 0.2 μM): 92%
- Activity of a4b2 with peptide (percentage of the reference compound) (α4β2; peptide at 20 μM): 83%
- Activity of NR2A with peptide, expressed as a percentage of the reference compound (NR2A; peptide at 0.2 μM): 107%
- Activity of NR2A with peptide (percentage of the reference compound) (NR2A; peptide at 20 μM): 129%
